From the supplement of paper PMC9112550, “Optimization of the antimicrobial peptide Bac7 by deep mutational scanning” (BMC Biology, 2022)

Test system: Escherichia coli TOP10
Test: shrunken log2 fold change of peptide-encoding DNA abundance (4.5 h post-induction vs induction); higher = less antimicrobial activity (less host growth inhibition)
Conditions: time post-induction: 4.5 h; library: site-saturation at positions 5, 18, 19, 20
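Further: peptides expressed intracellularly from a pBAD plasmid library in pooled LB shake-flask culture, induced with 0.3% L-arabinose, DNA abundance read by NGS, three biological replicates, DESeq2 with apeglm shrinkage.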

Sequence	shrunken log2 fold change
RRIRDRPPRLPRPRPRPKVFPRP	0.0612
RRIRDRPPRLPRPRPRPKVKPRP	-0.337
RRIRDRPPRLPRPRPRPKWAPRP	0.0411
RRIRDRPPRLPRPRPRPKWRPRP	0.344
RRIRDRPPRLPRPRPRPLAPPRP	0.607
RRIRDRPPRLPRPRPRPLATPRP	1.1
RRIRDRPPRLPRPRPRPLCVPRP	0.248
RRIRDRPPRLPRPRPRPLDEPRP	0.034
RRIRDRPPRLPRPRPRPLEGPRP	0.0257
RRIRDRPPRLPRPRPRPLHAPRP	0.317
RRIRDRPPRLPRPRPRPLHVPRP	-0.133
RRIRDRPPRLPRPRPRPLILPRP	-0.096
RRIRDRPPRLPRPRPRPLKPPRP	-0.00274
RRIRDRPPRLPRPRPRPLKRPRP	-0.0492
RRIRDRPPRLPRPRPRPLKYPRP	-0.529
RRIRDRPPRLPRPRPRPLLEPRP	0.31
RRIRDRPPRLPRPRPRPLLKPRP	0.437
RRIRDRPPRLPRPRPRPLNFPRP	-0.139
RRIRDRPPRLPRPRPRPLNNPRP	-0.305
RRIRDRPPRLPRPRPRPLNVPRP	-0.029
RRIRDRPPRLPRPRPRPLPMPRP	0.0543
RRIRDRPPRLPRPRPRPLRPPRP	1.15
RRIRDRPPRLPRPRPRPLTEPRP	0.236
RRIRDRPPRLPRPRPRPLTFPRP	-0.212
RRIRDRPPRLPRPRPRPLTLPRP	-0.0246

Sequence	shrunken log2 fold change
RRIRDRPPRLPRPRPRPLTPPRP	0.128
RRIRDRPPRLPRPRPRPLVEPRP	0.331
RRIRDRPPRLPRPRPRPLVQPRP	0.709
RRIRDRPPRLPRPRPRPMCRPRP	-0.0461
RRIRDRPPRLPRPRPRPMFLPRP	0.0737
RRIRDRPPRLPRPRPRPMFSPRP	-0.142
RRIRDRPPRLPRPRPRPMFWPRP	0.0751
RRIRDRPPRLPRPRPRPMGNPRP	-0.107
RRIRDRPPRLPRPRPRPMGTPRP	-0.106
RRIRDRPPRLPRPRPRPMGWPRP	0.476
RRIRDRPPRLPRPRPRPMHHPRP	-0.146
RRIRDRPPRLPRPRPRPMIMPRP	0.387
RRIRDRPPRLPRPRPRPMLKPRP	0.111
RRIRDRPPRLPRPRPRPMLMPRP	0.348
RRIRDRPPRLPRPRPRPMNFPRP	-0.285
RRIRDRPPRLPRPRPRPMQFPRP	-0.0264
RRIRDRPPRLPRPRPRPMRNPRP	0.416
RRIRDRPPRLPRPRPRPMSAPRP	-0.177
RRIRDRPPRLPRPRPRPMSYPRP	-0.0376
RRIRDRPPRLPRPRPRPMTCPRP	0.0184
RRIRDRPPRLPRPRPRPMTIPRP	0.0371
RRIRDRPPRLPRPRPRPMTVPRP	0.047
RRIRDRPPRLPRPRPRPMVQPRP	-0.00146
RRIRDRPPRLPRPRPRPMYAPRP	0.143
RRIRDRPPRLPRPRPRPMYGPRP	-0.0676

Sequence	shrunken log2 fold change
RRIRDRPPRLPRPRPRPMYKPRP	-0.363
RRIRDRPPRLPRPRPRPNCMPRP	0.111
RRIRDRPPRLPRPRPRPNDDPRP	0.226
RRIRDRPPRLPRPRPRPNDLPRP	0.124
RRIRDRPPRLPRPRPRPNFHPRP	-0.0585
RRIRDRPPRLPRPRPRPNHCPRP	0.0177
RRIRDRPPRLPRPRPRPNHFPRP	-0.189
RRIRDRPPRLPRPRPRPNKFPRP	-0.293
RRIRDRPPRLPRPRPRPNKMPRP	-0.195
RRIRDRPPRLPRPRPRPNLDPRP	-0.103
RRIRDRPPRLPRPRPRPNMHPRP	1.35
RRIRDRPPRLPRPRPRPNMTPRP	0.0572
RRIRDRPPRLPRPRPRPNNGPRP	-0.0483
RRIRDRPPRLPRPRPRPNNQPRP	-0.513
RRIRDRPPRLPRPRPRPNPPPRP	0.2
RRIRDRPPRLPRPRPRPNYHPRP	-0.359
RRIRDRPPRLPRPRPRPPDQPRP	0.72
RRIRDRPPRLPRPRPRPPDYPRP	-0.0704
RRIRDRPPRLPRPRPRPPEFPRP	-0.0567
RRIRDRPPRLPRPRPRPPEKPRP	0.106
RRIRDRPPRLPRPRPRPPEQPRP	0.261
RRIRDRPPRLPRPRPRPPFHPRP	0.0293
RRIRDRPPRLPRPRPRPPFIPRP	-0.533
RRIRDRPPRLPRPRPRPPFRPRP	0.126
RRIRDRPPRLPRPRPRPPFWPRP	0.185
